Test results published in the supplement of paper PMC12764529.
± gives the half width of the 95% confidence interval.

assay: folding stability dG unfold from trypsin proteolysis; higher = more stable
Procedure, shortened: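 Bayesian fitting of sequencing counts gave K50 for each design. Unfolding free energy followed by setting this against a sequence-predicted unfolded-state K50 and a shared folded-state K50, either per protease or with trypsin and chymotrypsin combined. The designs, under 80 residues and lacking cysteine, were digested in a PA-tagged cDNA display format at 11 threefold-diluted protease concentrations and without protease, and only those with AlphaFold2 dimer inter-PAE above 15 were kept.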

Compared with “SAGGKTIWIPMPPGDPEKFAKNIADEILEEAQKQGENVDVKITIQYPDGQYMRITIDGNGKIDKIVPWSAGG [r13_965_TrROS]”, “SAGGSAGGSAMTVRIEFEDGSVKEIPAEEFSEDFIKALPKKYKVSEYPEPPLDNNKSNILKSAGGSAGGSAG [r3_69_JUSTAS]” is lower in “folding stability dG unfold” value: 0.333 ± 0.2 kcal/mol for the first, -0.0131 ± 0.059 kcal/mol for the second.

Going from “SAGMEKKTLTVTHPDGSEATVEVYKNPETGKYVTLVHYPETGKYEVFDDNGNLIATFGNGSAADAFKAISAG [r5_757_TrMRF]” to “SAGGSAGGSAGMKVAVLTIPENGKPVLVVELPDGGALAFDPDTDAVFLLDDDKIYYLGPASAGGSAGGSAGG [r17_476_TrMRF]”, the “folding stability dG unfold” value falls from 0.375 ± 0.054 kcal/mol to 0.0117 ± 0.033 kcal/mol.

Going from “SAGGSAGGSAGGSPGNYREVEIEFRDPDDNGKEVKIEIWVQPGMPEEQIKEFVRELLRRSAGGSAGGSAGGS [r4_442_TrROS]” to “SMKITIVENEDGSLKIKVYFKDTGKVVEKTFEKGETIEEQVKKLAEELEKELGLEVVDVEIVKLPPPEKPSA [r9_1205_TrROS_Hall]”, the “folding stability dG unfold” value rises from 0.942 ± 0.18 kcal/mol to 2.63 ± 0.23 kcal/mol.

First: SAGGEMELTLTVTIKVENLTKEQIEEELRKLLEELGFEIEEITVEYDEENKTITVTVRIRLPPLEDLSAGGS [r16_287_TrROS_Hall]
Second: SAGGSAGGSERWVKIWFPPGGTLEEASKMIEEWAQQLGLPITKIDEIEWDPGNGRVEITIRLKSAGGSAGGS [r12_131_TrROS]
The “folding stability dG unfold” value of the first is higher: 3.15 ± 0.27 kcal/mol for the first, 1.93 ± 0.046 kcal/mol for the second.

First: SAMKKPPKTLTLVIVVKVPEEEMTEEQLEELARELAEALAPPGEKVEVKVEVERLPDGTVVVKIEIKLESAG [r14_389_TrROS_Hall]
Second: SAGGSAGGSAEKTLTVVIKVKPNKTPEEIAKEIKKKLNLPNVEIVSIEYDKETNYITIKVKVSAGGSAGGSA [r18_481_TrROS_Hall]
The “folding stability dG unfold” value of the first is lower: 2.28 ± 0.091 kcal/mol for the first, 3.6 ± 0.086 kcal/mol for the second.

First: SAGGSAMPLLIVDKNNNVTLISASSPEELEELLKKYNIKKIEPFPFPDGKALVFIAEYPDGIIYSGSAGGSA [r15_632_TrMRF]
Second: SAGGSAGGSAGGKLIVLPVTSDEVFDFGDGPIPVPAGSIVVLEISPDGAKALVFSPEDLSAGGSAGGSAGGS [r10_353_TrMRF]
The “folding stability dG unfold” value of the first is higher: 1.3 ± 0.02 kcal/mol for the first, 1.12 ± 0.021 kcal/mol for the second.

Going from “SAGDKIEIKFNIPMPEGPIRIMVWDNGKREEKDIPPGEEVTIKIDLPPGDDYRIAIYYPDGNMHEFPINSAG [r5_187_TrROS]” to “SAGGSAGGSAGGGMTVLSFTMPKEEVEKYFEEKGLDATEMTISPGPGDTYSVTVLDPGSSAGGSAGGSAGGS [r10_999_JUSTAS]”, the “folding stability dG unfold” value falls from 1.65 ± 0.17 kcal/mol to 0.33 ± 0.089 kcal/mol.

Compared with “SAGGMLEEVAEELAKELNATAREFTTVGDVPRILLTFKVPGSSTYLEVTLTLPPDGSVERTTKPIAASAGGS [r16_433_JUSTAS]”, “SAGGMEEIEPVTITITVVDEETGEKVEIKITVPKEEITRIEIKPDGTIRIYFKENNEVIEIKLEDIKSAGGS [r16_410_TrROS_Hall]” is higher in “folding stability dG unfold” value: 0.974 ± 0.047 kcal/mol for the first, 2.99 ± 0.24 kcal/mol for the second.

Compared with “SAGGSAGGSEATLEVEVRVDGVLVRVRVEYDLETQELRIEVEVRPLPPPPVEVRTEYRSLEDLSAGGSAGGS [r12_813_TrROS_Hall]”, “SMEIKIEITYDKDTNYLVIKVTIKLKTKTVDKKTKKVTEKEEEITLTLVIKLKPLKPGQKLKLEIKLFPESA [r9_1058_TrROS_Hall]” is higher in “folding stability dG unfold” value: 1.23 ± 0.052 kcal/mol for the first, 3.24 ± 0.22 kcal/mol for the second.

First: SAGGSAGGSAGGSDNKAILGDVPIKFYDKNGKPVITAKIGYFPDGRVVIYFPDGSKIEASAGGSAGGSAGGS [r10_972_TrMRF]
Second: SAGGSAMKVRLEVEEEDGKLRVRLEVEVGPPVVRVEVEAEVEEVDGELVLKVTVKVELSPEALEALSAGGSA [r15_725_TrROS_Hall]
The “folding stability dG unfold” value of the first is lower: 1.48 ± 0.04 kcal/mol for the first, 3.47 ± 0.22 kcal/mol for the second.

Going from “SAGGSAGGSAMRELVKRAAKNGNPGQKVMIRPPDKRYFPITVEGNKIEPKDLPPGWEVHVISAGGSAGGSAG [r3_244_TrROS]” to “SIIVEPLPDNTFIAYFPETDSVIEIRVDPSTGKAHAIAELPGEPVEATFDPRKGVLVIELPNGRIVLPLLSA [r9_541_TrMRF]”, the “folding stability dG unfold” value rises from -0.427 ± 0.39 kcal/mol to 2.28 ± 0.051 kcal/mol.

First: SAGGSAGGSAPLSLVIDFPSGPATITFLEDGTARITYTDDDKTETIPVADLLKIPADVDPRSAGGSAGGSAG [r3_256_TrMRF]
Second: SAGGKKIEIEIVFKEGEKAPSAEEIAKKLLEEIPNIKITSIEIVDVEYDEETGEKYVVVKITIEVEPPSAGG [r13_10_TrROS_Hall]
The “folding stability dG unfold” value of the first is lower: 0.0215 ± 0.099 kcal/mol for the first, 2.96 ± 0.18 kcal/mol for the second.

Compared with “SAGGMITTSTLSDGTTVVTIRVPGSPEEADAVAEEVREALLAAGYRTVEVSREPVEDGWVVTITTVSSAGGS [r8_113_JUSTAS]”, “SAGGSAGGSAGGKKTITVPVKIEEVDGKFRITLPDGKVIEFPPGAKVEEKDGLLTIELESAGGSAGGSAGGS [r10_305_TrROS_Hall]” is lower in “folding stability dG unfold” value: 3.28 ± 0.063 kcal/mol for the first, 0.932 ± 0.025 kcal/mol for the second.

“SAGGSAGGSMKNIKEIKVERRKLPNGGEYYVVTITYPDGKEIIIEMSPEETLEEALEKAKELSSAGGSAGGS [r12_1047_JUSTAS]” and “SAKIRIPLEKLIDLAESIPGVEVLYDPETGLLLAFIPEIGMLILIRLEEDPEDPDNVEVDIEIIPLSPFSAG [r14_604_TrMRF]” are within error of each other in “folding stability dG unfold” value: 2.87 ± 0.16 kcal/mol for the first, 2.75 ± 0.16 kcal/mol for the second.

“SAMEIVIEFESPEEAEKAIKEYVEKKGLKAVEIKMEFEPKWVEEKTPTGVKVTKEKYVAKVTVVTSKELSAG [r14_773_JUSTAS]” and “SAGGSAGGSAGGGKTVVYRFPASLTPEQAVDEITAKVPPNYPVIVEYHPESGTFVAYVPSAGGSAGGSAGGS [r10_163_TrMRF]” are within error of each other in “folding stability dG unfold” value: 0.457 ± 0.21 kcal/mol for the first, 0.725 ± 0.1 kcal/mol for the second.

For “SAGGSAGGSKSKKYIEIDFSNLTEIKFNPNTNYATAIFKDKGKIYIAKIHFLPNGKAIAEVFDSAGGSAGGS [r12_839_TrMRF]”, the “folding stability dG unfold” value was 1.67 ± 0.054 kcal/mol.
